# Paper PMC11574021, “CEP192 localises mitotic Aurora-A activity by priming its interaction with TPX2” (The EMBO Journal, 2024)
# Where a chain is given by its changes, count along the chain named. Where two headings read alike, the source gives them in different places.
# T1: Aurora-A CAKD (Homo sapiens, UniProt O14965, C290A/C393A)
# T1 construct: 25 μM Aurora-A kinase domain (phosphorylated or unphosphorylated C290A C393A 122–403); His (N, cleaved yes); made in house; host or cells: E. coli
# T1 sequence (O14965 122-403 C290A/C393A): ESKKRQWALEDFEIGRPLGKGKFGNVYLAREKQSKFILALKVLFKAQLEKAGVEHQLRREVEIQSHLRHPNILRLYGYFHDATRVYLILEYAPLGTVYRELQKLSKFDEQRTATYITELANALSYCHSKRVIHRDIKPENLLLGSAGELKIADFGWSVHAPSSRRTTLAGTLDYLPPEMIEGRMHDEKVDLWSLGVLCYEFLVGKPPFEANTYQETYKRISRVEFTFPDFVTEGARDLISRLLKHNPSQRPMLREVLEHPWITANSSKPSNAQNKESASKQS
# T2: unphosphorylated Aurora-A CAKD (Homo sapiens, UniProt O14965, C290A/C393A)
# T2 construct: 10 μM Aurora-A kinase domain (phosphorylated or unphosphorylated C290A C393A 122–403); His (N, cleaved yes); made in house; host or cells: E. coli RIL, co-expressed with lambda phosphatase
# T2 sequence (O14965 122-403 C290A/C393A): T1 sequence (O14965 122-403 C290A/C393A)
# T3: phosphorylated Aurora-A CAKD (Homo sapiens, UniProt O14965, C290A/C393A)
# T3 construct: 10 nM Aurora-A 122–403 C290A C393A phosphorylated protein; His (N, cleaved yes); made in house; host or cells: E. coli B834 (no lambda phosphatase)
# T3 sequence (O14965 122-403 C290A/C393A): T1 sequence (O14965 122-403 C290A/C393A)
# T4: phosphorylated Aurora-A^CAKD (Aurora-A 122–403 C290A C393A, not co-expressed with lambda phosphatase) (human, UniProt O14965 122-403, C290A | C393A, phosphorylated (sites of this preparation not printed in the text shown))
# T4 sequence (looked up): T1 sequence (O14965 122-403 C290A/C393A)
# T5: Aurora-A^CAKD (Aurora-A kinase domain, aa 122–403 C290A, C393A), unphosphorylated (human, UniProt O14965 122-403, C290A | C393A)
# T5 construct: Aurora-A kinase domain, human, residues 122-403, variant lacking surface cysteines; also called Aurora-A 122–403 C290A C393A; unphosphorylated Aurora-A^CAKD; source: E. coli RIL, co-expressed with lambda phosphatase, purified (HisTrap, TEV cleavage, SEC); not shown: His6, N-terminal, cleaved
# T5 sequence (looked up): T1 sequence (O14965 122-403 C290A/C393A)
# T6: Aurora-A^M3KD (Aurora-A 122–403 C290A C393A D274N) (human, UniProt O14965 122-403, D274N | C290A | C393A)
# T6 construct: Aurora-A kinase domain, human, residues 122-403; also called Aurora-A kinase domain (122–403 C290A C393A D274N); source: E. coli, purified (HisTrap, TEV cleavage, SEC); not shown: His6, N-terminal, cleaved
# T6 sequence (looked up): T1 sequence (O14965 122-403 C290A/C393A) with D153N
# B1: human CEP192 442–533 (domain or fragment, UniProt Q8TEP8 442-533, looked up)
# chain: IWSPTCERRTCECHESIEKNKDKTDLPQSVVYQNEEGRWVTDLAYYTSFNSKQNLNVSLSDEMNEDFRSGSEAFDLIAQDEEEFNKEHQFIQ
# notes: Codon-optimised template from GenScript (CEP192 1-1000); source: E. coli B834 RIL, purified (HisTrap, TEV cleavage, SEC); 15N- or 15N/13C-labelled in Rosetta E. coli for NMR; not shown: His6, N-terminal, cleaved; SUMO, N-terminal, cleaved
# B2: TPX2 1-43: Aurora-A activating domain of TPX2 (aa 1–43) (protein)
# chain: MSQVKSSYSYDAPSDFINFSSLDDEGDTQNIDSWFEEKANLENKLLGKNGTGGLFQGKTPLRKANLQQAIVTPLKPVDNTYYKEAEKENLVEQSIPSNACSSLEVEAAISRKTPAQPQRRSLRLSAQKDLEQKEKHHVKMKAKRCATPVIIDEILPSKKMKVSNNKKKPEEEGSAHQDTAEKNASSPEKAKGRHTVPCMPPAKQKFLKSTEEQELEKSMKMQQEVVEMRKKNEEFKKLALAGIGQPVKKSVSQVTKSVDFHFRTDERIKQHPKNQEEYKEVNFTSELRKHPSSPARVTKGCTIVKPFNLSQGKKRTFDETVSTYVPLAQQVEDFHKRTPNRYHLRSKKDDINLLPSKSSVTKICRDPQTPVLQTKHRARAVTCKSTAELEAEELEKLQQYKFKARELDPRILEGGPILPKKPPVKPPTEPIGFDLEIEKRIQERESKKKTEDEHFEFHSRPCPTKILEDVVGVPEKKVLPITVPKSPAFALKNRIRMPTKEDEEEDEPVVIKAQPVPHYGVPFKPQIPEARTVEICPFSFDSRDKERQLQKEKKIKELQKGEVPKFKALPLPHFDTINLPEKKVKNVTQIEPFCLETDRRGALKAQTWKHQLEEELRQQKEAACFKARPNTVISQEPFVPKKEKKSVAEGLSGSLVQEPFQLATEKRAKERQELEKRMAEVEAQKAQQLEEARLQEEEQKKEELARLRRELVHKANPIRKYQGLEIKSSDQPLTVPVSPKFSTRFHC
# Experiments:
# [1] = tested on: TCTP-pS46 in RPE1 p53-/- cells; test: Western blot densitometry, TCTP-pS46, RPE1 p53-/-; type: cell-based, Homo sapiens; settings: mitotic RPE1 p53-/- lysates, inhibitor 30 min
# Experimental: (§1) For measuring monopolar spindle diameter and counting centriolar foci by immunofluorescence, cells were treated with 10 µM STLC for 1 h and 4 h prior to fixation, respectively.
# (§2) Drugs were resuspended in DMSO to the stock concentrations indicated in square brackets.
# (§3) Cells were lysed on ice for 30 min in lysis buffer (50 mM tris pH 8.0, 300 mM NaCl, 0.2%(v/v) NP-40, 10%(v/v) glycerol, protease inhibitor cocktail C, phosphatase inhibitor cocktail 3 (Sigma, 1:200 dilution), 100 nM okadaic acid (Enzo, ALX-350-003-C100)). Lysates were then centrifuged at 14,000 × g, 15 min, 4 °C, the supernatants were transferred to a fresh tube, and the pellet was discarded. Protein concentrations were measured by Bradford assay using Protein Assay Dye Reagent Concentrate (Bio-Rad Laboratories, 5000006). NuPage LDS sample buffer, supplemented with NuPAGE sample reducing agent (Invitrogen) were added prior to boiling for 10 min at 90 °C. […] Nitrocellulose was then blocked in 5% milk (wt/v) in TBS, 0.1% Tween (v/v) (TBST) for 1 h. Primary and secondary antibodies were diluted in 5% milk, TBST and incubated overnight at 4 °C or for 1 h at room temperature, respectively. […]
# (§4) Densitometric quantification of western blots was also performed in ImageJ. Intensity was measured in a rectangular region of interest (ROI) around each band. […] An adjacent region was also measured to account for background intensity.
# [2] = tested on: PLK1-pT210 in RPE1 p53-/- cells; test: Western blot densitometry, PLK1-pT210, RPE1 p53-/-; type: cell-based, Homo sapiens; settings: mitotic RPE1 p53-/- lysates, inhibitor 30 min
# Experimental: as §1, §2, §3, §4
# Aurora-A (Homo sapiens) = Aurora-A (Homo sapiens) (UniProt O14965); test: fluorescence polarisation; settings: cited from earlier work
# Aurora-A CAKD = target: T1, Aurora-A CAKD; test: Fluorescence anisotropy competition with FAM-TACC3 522-536; type: binding; settings: in words
# Experimental: Assays were performed in 25 mM HEPES pH 7.5, 150 mM NaCl, 2 mM DTT, 5 mM MgCl2, 0.01% Tween 20. For CEP192 and TPX2 competition assays 10 μM Aurora-A kinase domain (phosphorylated or unphosphorylated C290A C393A 122–403) was preincubated on ice with 100 nM FAM-TPX2 7-43 or 100 nM FAM-CEP192 501–533. For TACC3 competition, due to weaker binding, 25 μM Aurora-A kinase domain (phosphorylated or unphosphorylated C290A C393A 122–403) was preincubated with 100 nM FAM-TACC3 522-536. Serial dilutions of competitor (CEP192) were performed in triplicate into a low volume 384-well black plate, before the premixed Aurora-A and tracer were added. A control row included no tracer. Plates were left incubating for 1 h at room temperature before the fluorescence anisotropy was measured using a HIDEX plate reader, with excitation at 485 nm and emission at 535 nm. […]
# (§5) Fluorescence anisotropy data were processed using Microsoft Excel to calculate intensity and anisotropy using the equation listed in (Yeo et al, [2013]). The IC50 and Kd values were calculated using Origin (OriginLab) where the data fitted to a sigmoid and are summarised in Appendix Table S3.
# [3] = target: T2, unphosphorylated Aurora-A CAKD; test: Fluorescence anisotropy competition with FAM-TPX2 7-43; type: binding
# Experimental: Assays were performed in 25 mM HEPES pH 7.5, 150 mM NaCl, 2 mM DTT, 5 mM MgCl2, 0.01% Tween 20. For CEP192 and TPX2 competition assays 10 μM Aurora-A kinase domain (phosphorylated or unphosphorylated C290A C393A 122–403) was preincubated on ice with 100 nM FAM-TPX2 7-43 or 100 nM FAM-CEP192 501–533. For TACC3 competition, due to weaker binding, 25 μM Aurora-A kinase domain (phosphorylated or unphosphorylated C290A C393A 122–403) was preincubated with 100 nM FAM-TACC3 522-536. Serial dilutions of competitor (CEP192) were performed in triplicate into a low volume 384-well black plate, before the premixed Aurora-A and tracer were added. A control row included no tracer. Plates were left incubating for 1 h at room temperature before the fluorescence anisotropy was measured using a HIDEX plate reader, with excitation at 485 nm and emission at 535 nm. For direct binding experiments, the assay was performed as above, but the Aurora-A (122–403 C290A C393A or point mutants) was diluted across the plate from high to low concentration, before the addition of 50 nM tracer (FAM-CEP192 501–533) to three replicate rows. Buffer only was added to the control row.
# as §5
# [4] = target: T3, phosphorylated Aurora-A CAKD; test: ADP-Glo kinase assay, kemptide substrate; type: biochemical
# Experimental: Reactions were initiated by the addition of 10 μM ATP and 100 μM kemptide as substrate (Cambridge Bioscience Ltd). The reactions were incubated at room temperature for 60 min before 5 μl was transferred into 5 ul of ADP-Glo Reagent (Promega) in a 384-well low volume low binding plate (Greiner Bio-one). After a further 40 min at room temperature, 10 μl of kinase detection reagent was added to each well, and the reaction was allowed to incubate for an additional 30 min. Luminescence was measured on a HIDEX Sense plate reader (HIDEX) using a 1 s integration time. Control data was subtracted from the luminescence and three repeats were averaged before being fitted to a sigmoidal plot using Origin (OriginLab), where IC50 and EC50 values were calculated.
# Aurora-A = settings: ref (Burgess et al, [2015]; McIntyre et al, [2017]; Zorba et al, [2014]), cited from earlier work
# Experimental: This is a higher affinity than observed in a previous study that used CEP192 proteins fused to MBP, a large protein tag that might have affected the interaction (Park et al, [2023]). For context, the affinity of Aurora-A for its other key mitotic partners are: TPX2_1-43 (Kd 0.3–2 μM from ITC) and TACC ...
# [5] = target: T4, phosphorylated Aurora-A^CAKD (Aurora-A …); test: cell-based or functional assay
# [6] = target: T5, Aurora-A^CAKD (Aurora-A kinase domain, …); test: fluorescence polarisation; competition: 25 μM Aurora-A kinase domain preincubated with 100 nM FAM-TACC3 522-536, CEP192 competitor serially diluted; 25 mM HEPES pH 7.5, 150 mM NaCl, 2 mM DTT, 5 mM MgCl2, 0.01% Tween 20; settings: both partners purified
# [7] = target: T6, Aurora-A^M3KD (Aurora-A 122–403 C290A …); test: ITC; CEP192 442–533 titrated into Aurora-A kinase domain (by the legend); 25 °C; 20 mM tris pH 7.5, 200 mM NaCl, 10% glycerol, 5 mM MgCl2; two repeats; settings: both partners purified
# [8] = target: T5, Aurora-A^CAKD (Aurora-A kinase domain, …); test: fluorescence polarisation; competition: 10 μM unphosphorylated Aurora-A^CAKD preincubated with 100 nM FAM-TPX2 7-43, CEP192 competitor serially diluted; 25 mM HEPES pH 7.5, 150 mM NaCl, 2 mM DTT, 5 mM MgCl2, 0.01% Tween 20; settings: both partners purified
# Chain of Aurora-A (Homo sapiens) (O14965 whole entry): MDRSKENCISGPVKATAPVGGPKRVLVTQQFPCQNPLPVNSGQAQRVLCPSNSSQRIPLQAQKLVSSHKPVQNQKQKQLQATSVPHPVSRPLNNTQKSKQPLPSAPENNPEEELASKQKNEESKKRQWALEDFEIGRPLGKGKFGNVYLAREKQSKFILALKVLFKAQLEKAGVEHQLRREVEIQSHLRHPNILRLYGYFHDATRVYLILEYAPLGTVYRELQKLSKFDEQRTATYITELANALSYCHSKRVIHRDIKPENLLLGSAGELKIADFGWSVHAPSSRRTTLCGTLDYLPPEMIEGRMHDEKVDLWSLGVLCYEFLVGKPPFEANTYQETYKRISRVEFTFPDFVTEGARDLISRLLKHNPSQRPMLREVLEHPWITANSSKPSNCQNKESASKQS
molecule,measurement,setting,value
CC[C@@H]1C(=O)N(C)c2cnc(Nc3ccc(C(=O)NC4CCN(C)CC4)cc3OC)nc2N1C1CCCC1 [BI2536],phosphorylation of TCTP (pS46),[1],decreased
same,T-loop phosphorylation of PLK1 (pT210),[2],decreased
TACC3 519-563 (from UniProt Q9Y6A5),Kd,Aurora-A (Homo sapiens),6000 nM
"IWSPTCERRTCECHESIEKNKDKTDLPQSVVYQNEEGRWVTDLAYYTSFNSKQNLNVSLSDEMNEDFRSGSEAFDLIAQDEEEFNKEHQFIQ [CEP192 442-533, recombinant human CEP192 aa 442–533]",competition for binding with FAM-TACC3 522-536,Aurora-A CAKD,competed for binding with FAM-TACC3_522-536
same,competition for binding with FAM-TPX2 7-43,"[3]; in words, Aurora-A CAKD",competed for binding with FAM-TPX2_7-43
same,effect on Aurora-A kinase activity,"[4]; ADP-Glo, phosphorylated Aurora-A CAKD, kemptide, in words",partially inhibited the activity
"TACC3 519-563: TACC3 fragment, literature affinity (ELKEESFRDPAEVLGTGAEVDYLEQFGTSSFKESALRKQSLYLKF; UniProt Q9Y6A5 519-563, looked up, fragment)",Kd,Aurora-A; from fluorescence polarisation,~6000 nM
B1,"ADP-Glo, 10 nM phosphorylated Aurora-A^CAKD with kemptide: IC50 of partial inhibition of kinase activity",[5],32 nM
same,IC50,[6],5700 nM
same,IC50,"[3]; competition with 100 nM FAM-TPX2 7-43, 10 μM unphosphorylated Aurora-A CAKD, n = 3 (Appendix Fig. S4E)",3330 nM
same,Kd,[7],72 nM
same,stoichiometry N,[7],0.67
same,IC50,[8],4200 nM
B2,Kd,Aurora-A; from ITC,300 to 2000 nM
same,EC50,"[4]; 10 nM phosphorylated Aurora-A CAKD, 10 μM ATP, 100 μM kemptide, 60 min, n = 3, read-out: ADP-Glo EC50 (stimulation of Aurora-A activity)",6.8 ± 0.5 nM
same,EC50,"[4]; ADP-Glo, 10 nM Aurora-A, first manuscript version, quoted by referee, read-out: concentration of 50 % max activation",1 nM
